A short description of this data set: soluble fraction after stress (log2 fold change); higher = more stays soluble; pooled small domains, quantitative proteomics. The following applies: stress: 50 degC. Summed up:
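The measure of aggregation propensity here is the base-two logarithm of the fold change in the soluble amount of each protein after stress. A higher value means more of that protein stays in solution. Stress was applied at 50°C to pooled libraries of small protein domains, read out by high-throughput quantitative proteomics.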

These results are taken from the domain aggregation screens of Martell et al. (2025).

As for “HMPVISGQDLRVLIRDTGRERDQGISFLDDGTMVVVEDARRLIGQEVTATVTRVHQTQTGRIVFAHLSN”, the “soluble fraction (log2)” value is 0.0684. To “HMNIDEIFLTKNEIYFSFEYQKKSQLDRYSKIISLDHRIDKNTAYAYANKKQFLNFINLNIDYKIIDNSF” belongs -2.65; to “HMVGPAHIGLAVAKDQLPHWERHLTANGVEIEGRMRWDHGGESIYFRDPDAHLLELVTPGIWAN”, -0.0453; to “HMSNIVNYEVYVYQNDAWDLLARYPSEKRAEAIEYAKSTEFSLNRPTKVIRETYDLDTQKFQEALIYLSE”, -0.239.

Turning to “HMSTALTPLTTREREVLALMAEGLTNSGIAARLVLTDRTVETHVSRILHKLGLGETTTNEHRRVLAVLRYL”, the “soluble fraction (log2)” value was -1.5. With “HMGSLVVVPNLVGQNYDEVKLSTKYSDFEIVQKNTEYSEAPAGQIIKQDPEAGTKVKKHSTINVTVSK”, the “soluble fraction (log2)” value is -0.354.

On to “HMSLQDYYQVLGVFYNAGDKEIKRRWKELINQYHPDLAQAKGASPEEIENYTLKMAEINNAYEQIMKSRKA”, for which the “soluble fraction (log2)” value stood at 0.0274. Turning to “HMSLEEIPLEERLGPGGLDPVAVYDSLPREMRDAFDSGSVSALREFVNALPAEDAARHMKAMVDSGLWVPT”, the “soluble fraction (log2)” value was 0.0547. As to “HMISAADLQTYLKGMDYPAGREDLVAHAQRNNAPESVITILQGFSDRTYRSAAEVSEEFGRE”, the “soluble fraction (log2)” value was 0.194. Regarding “HMNTLTKEDIQKAIDVIPIDFKSVVILNLVEGFSYKETAEILEIPIGTVMSRLHRGRKILQKLLWEYSSSK”, the “soluble fraction (log2)” value was -1.32.

With “HMINLRTALNNAGVMQKELSDILYMTPQDVNRRFSGVTKWKPLEKRAIMQFLEDRGFEYTEEQLF”, the “soluble fraction (log2)” value is -0.532. The value for “HMVPSTAVIFTELVSMRSEPATKSPVTHQLTKGTAITINEEKDGWYQVTDQTGNSGWIVKWAVKPTYFTNP” was -0.0492. The value for “HMPLTEMAVRKHLSAELAQKGYTIDPRALEILLQRTNTNLTAIANELPKLLLVAEDKQITVNEVSAM” was -0.164; that for “HMSVFGMEIGKTTEAEAGRMYRLNKEQLNPYSGGYQYSVNPKAIDFSGLEQVTLIFDEKKVLVYVQAV” was -0.0837; that for “HMKRTMVEAAMVAKLFNLTVRRIQQLTQDGVLTTELVDKKRRYDLLLTVQKYIAYLQEKVAK” was -3.24. To “HMSKQQVRSILDDIPNIGETRRKALMRQFQSLEKIREASVGQLREVDGMNEKAAQSVYQFFHK” belongs -0.0486; to “HMIITTPYKVTASAINIRSGRGTSYSIIGTVSKGQTVDVYNNSLSKGWVKVKFSGSVGYAYAKYLEK”, -0.299; to “HMTEDTPIIVERVVADIDENVVAIVRKFKDAFKSITAQREIKKKLRSILWVNYQIKDQEVFDKAYQYIEMY”, 0.0204. On to “HMTVNLPPKQKAAILLMSLPPEVSAQLFKELGPDEVHAITLEISKLPPISPDVRAQVIDEFLHSS”, for which the “soluble fraction (log2)” value is -0.152. To “HMHELKIEKVAEAPNGAMRLLLSDGSEWVLGVKSWNRLNLSLEKILDVNVLRALEKESQYHLLRTKALEL” belongs -0.395; to “HMHLYDMYNLTEKEISIIRLIANGLNNKEISQELFLSEGTIKNNITNILAKLELRDRTQLAIFAFKNKIVI”, -0.484. The value for “HMRGWGTVKRRTPKSGRYRASYIGPDGKRYAADHTYAAKVDADAWLSSERALITAGVWTPPTDRVT” was -0.286. “HMIDQSVVVQYLSKLTNTPYLKTREITMGEPYMQFERGEIKFQEYVEDIRALLPGGDRIDADRLRDIWMNS”: the “soluble fraction (log2)” value is -1.22. For the sequence “HMVDLANIDPIASSIKLNGAEADASFNTLEDRRVSVSGSFEENKNYTMEYTFKDYAGGSVTGTLDFKTLA”, the “soluble fraction (log2)” value was 0.137. On to “HMSDDIPVHYRLDVNDAARALKLLTDNGFSAETAESGLNVYMTRLQSAEAARLLVENNIAVYGLTAV”, for which the “soluble fraction (log2)” value was 0.0267. To “HMYSLGPKERSIVSFIANRPGSRSGQIAKSLQIPLPTIKRILNGLVENKVIARHGIGAGTNYVVEDQA” belongs -0.594; to “HMLKKGDQVYIISGKDKGKLGVVSQIVSEERILVDGINLAKKHVKPNPNKNETGGVVEKEMPIHASNVMI”, -0.0911. On to “HMQEKIREVANRIRELRESLEVSPEEMADHLKVTIGTYIEYERGEADIPASVLFGIAHRLNVDMAVLL”, for which the “soluble fraction (log2)” value amounted to 0.142.

Consider “HMHMKTIEWDSLVLIMYKDMKYLKRINEGQSFHGKGGMLNYADLIGKTYGIRFGQYEIFEPSLEDIVMYG”, for which the “soluble fraction (log2)” value is -0.126. Take “HMIVVTSPQVTDERIAEIVAFIEKHGVQAHVSRGTDRTVIGIIGKADPVLAEHLRSMQGVENVIKIS”: the “soluble fraction (log2)” value was -0.0652. Regarding “HMENYIEQLTAKNSEYIHVVTRELVKIGKSDEEIKAILSDILPQIVAAQDQRVLAKDILGTPSEFTAKYAP”, the “soluble fraction (log2)” value came out at 0.173. The value for “HMKDRNISSSVLEILSKDPDHTYNYKQIAALLGVKDAFIRKRIVTLLAQLAKDGHLDEISRGKYQIK” was -1.02; that for “HMQPDDELVRLLLIKIFNDKQLKVNPAVINYLLRRIDRSFESINNFVKKIDEFSLEKGRKITVNLVSGFF” was -0.653. The value for “HMIPEGKWMEDPISEGQIKFIETLIKQAIDSGQDALGAEAKQYLSSGEATKGNASSMIDKLKDAL” was 0.243; that for “HMKLSIGGTIEKLRRNKGLSHQQLANALGVTPDTVEKWEINAAYPDITLLSPIARLLGTTLDALLMF” was -0.649; that for “HMTNATVGQIKKLARASILYGNSNLSGNRYTYKANTTVTILQNISSNVDKIRVNVTGRVAYIDNSNYSSST” was -3.56. To “HMKELLQEMIMDILRAIASPNIDIKRKTLDLVLDLITPRNIDNVTGMLKTEVVKSQSENTSDVG” belongs -0.623; to “HMLNLNILTDKEKFIAKLISRGLSDSLIAKELYISISTVRSHVNSIYGKTNIKNRSHLASSFLYFELGNLL”, -0.135. For “HMKTVKPSQIPYSEFLKLVETDKINDVSMVGRNIIGHLDDGSKFKTYTPPNDPTLIEKLSSHNIVINAAPE”, the “soluble fraction (log2)” value worked out at 0.149. The value for “HMKSSISKNWNPSKDAIEILTRAGIDQEFLENLIPEFVIYWIERSDVLISYNSKFIEHARLKWAQHTAEIQ” was -0.0223; that for “HMRVKLVKKSILASGGENIRVDKFLSNHILTMTRTQIKKLFLDGLVQVNKSFVKPGSILKGNEIITFSIPE” was -1.8. As to “HMLIPTISVTKEGQLRFENIPVSWEELGTRLRDVSDLDKIKIYADAESDALTISEIMKTAANVGIVQFVLV”, the “soluble fraction (log2)” value was -0.578. The value for “HMIAASQVLRDARQRSRLTQAELGRRADVPQSVISAYESARREPSVDMLARLVAAAGFDLRIGLTP” was -0.541. The value for “HMEDADERRALEVLNQLLDLPEREQEAALAALSLPPALARRVRSLLSVQTRAADLFDTAPSP” was -0.0946; that for “HMFVTGTTIKKLREEKRMTQGELAQMIGVSDKAVSKWETGRGLPDISLLEPLSRALGISVAELFAGQH” was -0.0392. The value for “HMTSKTLSAVEGEGLRLDKFLSNQLPELSRTKIQKMINDGLVFVNNTEAKASLILDGSEFIAYTVPD” was -0.0541. Regarding “HMTRAEVQALLEKQAKDFEVEVVHRGWKKTVQTPEFAGWYSQQPAEIKALAESDDPAVAIRMLDLFSGTK”, the “soluble fraction (log2)” value is -0.0852. Take “HMQRRHESTPIPADFDYAAVRGLSAEVQQKLERVRPLSIGQAQRIPGMTPAAISLLLVHLERQRRSRV”: the “soluble fraction (log2)” value was -0.152. For the sequence “HMQGDHELSQRILSYLSEQGGSSPLTDKASPEEIYRIFRVSKKKYKQALGNLYKSKSIIILADKIQLL”, the “soluble fraction (log2)” value was -0.736. The value for “HMTPTITNALEEAEKAVSEVQEGKKEIELTPQGAYIRHLQHAIADRYGISSTSTGRDPKRKVIIY” was -0.108; that for “HMEMGNKIKELRTKLGITQEELSKTLNVSSQAVSKWENGGLPDLELIPEIAKYFNVTTDYLFDIK” was 0.0658.

In the case of “HMNGSVLVTGGSVWIRAGASKETDGLGIVHKGDVLKRSGSDASGWRGVVYEGQNAFISAKYSSI”, the “soluble fraction (log2)” value is -0.916. On to “HMTIQNSILDEIPNIGASRKRAILEAFGSVHRLRKASPEMISAKVEGIGPEMAQAIHDYLVKHPAT”, for which the “soluble fraction (log2)” value is 0.19. On to “HMNLAISAYQQLKSDIIRGVYAPGEKLLMSRLKVRYGLGIGPMREALSQLVSEHLVTAASQRGYRVAGM”, for which the “soluble fraction (log2)” value was -1.64. Turning to “HMKTYSEAQLKIALESLIENGKKQGYLTFQEINEILPDGIINTQDLKVIISILKETGIVVAKEKPEINIDV”, the “soluble fraction (log2)” value worked out at 0.0784.

Turning to “HMVKKYEKVKEYLLERILDGTYVPDLPIPPERELASLLDVNRMTVRRAVEELMYDGYLIRKKGSGTYLTR”, the “soluble fraction (log2)” value is -1.57. With “HMPGRKKLAIIYKNDYIGAFNLADSYRDSYEVSMYAFPKKVGKLLNRLELQGFNAYVIYDKDNEENNFNTI”, the “soluble fraction (log2)” value is -1.65.

With “HMNVYEVKFGDTLDEIIKTYLFDIPVKKSILRQAVILANPHAFRRNNPHWMYSDRQLKLPELQDIRRAIF”, the “soluble fraction (log2)” value was -0.276. “HMTGKVKWYDADKGFGFVTEDGGRDVYVRKSALPQGVETLKAGQRLEFGIAEGRRGPQALSVR”: the “soluble fraction (log2)” value came out at 0.0817.

In the case of “HMSSVEEILQTLGGRIRTQRLAQGISQQVLADRAGLSLGAVRQLEGSGQSGLDTLVRVLFVLGIVDEL”, the “soluble fraction (log2)” value was -2.21. With “HMETPLSAADFKIVFGEEYEIGTDANGLPKMGSRINRQLQNRFLTWASVNKRKATMSAYQDWVASDPAAQ”, the “soluble fraction (log2)” value is -0.336. The value for “HMNVPFGYTIKDGLLVEQPDEKAILDNILTWKKGQMTVAEIAKKTGMETWKIYGILNYWRNK” was -0.875; that for “HMRNAAGGIYGWMTLHQVAETVKLTEEEVIAITNLPAGIPRDVSLKNIEGVNDEELRALLEAYLEKQ” was -0.151.

As for “HMDPTEPLFVGVVTAEPYLNIREYPTTQSKDLGDLFPGMHVNVYEIVPNWYRIDDGWVASAWVKRDWGGG”, the “soluble fraction (log2)” value is -1.2. Consider “HMGTGSSAERITMLNSILERQIQAMEIQGNPDAPIVNIQKIYTTLQRIVETAGLKDVDQFFMNPLQGQKEM”, for which the “soluble fraction (log2)” value was -0.253. On to “HMQERQREGFVQQLRGKYSGQVVMRLFPELQGKALGEFMRKFEAQWEDHEAVLAAMEAHEIESRLKVFK”, for which the “soluble fraction (log2)” value was -0.965. To “HMVPEEEATKISVQNVGASDYNFTVKGVQANDPTLTLVRGKTYEFDVTSLGHPFWIKTQKVTGSSSQY” belongs 0.1.

On to “HMKTALQENVRAYRLERKWTQQALAEALEVSVGAVSKWESGVSRPELETLMRLAELFGVSTDALLGF”, for which the “soluble fraction (log2)” value was -1.75.
